# Numbered stars: 1 amine (or outer) side, 2 acyl side, 3 side chain; on linkers, the order of the positions; unused ones are H or OH. Bridge positions count the residues as written; N and C are the ends. Side chains are listed from the residue outwards. Ends that are not written are not given here. * marks the point of attachment. C20 diacid = O=C(O)CCCCCCCCCCCCCCCCCCC(=O)*; γGlu = O=C(O)[C@H](CCC(=O)[*:2])N[*:1]
# T1: human amylin receptor (amylin 3(a) receptor: human calcitonin receptor co-expressed with RAMP-3) (human, UniProt P30988 25-474; O60896 24-148, limits assumed)
# T1 sequence (looked up) 1: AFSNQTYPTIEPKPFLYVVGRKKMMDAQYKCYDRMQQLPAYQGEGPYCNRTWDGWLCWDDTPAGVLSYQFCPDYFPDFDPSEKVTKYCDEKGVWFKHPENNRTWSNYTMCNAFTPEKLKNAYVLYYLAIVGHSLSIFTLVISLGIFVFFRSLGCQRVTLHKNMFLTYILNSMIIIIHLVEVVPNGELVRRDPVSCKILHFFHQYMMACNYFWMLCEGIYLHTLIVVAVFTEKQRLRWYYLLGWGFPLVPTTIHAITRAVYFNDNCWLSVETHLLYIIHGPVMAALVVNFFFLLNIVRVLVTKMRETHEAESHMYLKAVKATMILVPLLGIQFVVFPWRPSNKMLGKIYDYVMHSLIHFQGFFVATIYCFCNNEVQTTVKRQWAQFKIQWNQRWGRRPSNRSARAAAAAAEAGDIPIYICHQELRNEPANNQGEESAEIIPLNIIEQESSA
# T1 sequence (looked up) 2: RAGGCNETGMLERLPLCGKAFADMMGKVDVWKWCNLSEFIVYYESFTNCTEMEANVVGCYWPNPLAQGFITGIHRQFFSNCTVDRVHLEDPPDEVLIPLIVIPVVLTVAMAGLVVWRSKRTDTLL
# T2: human calcitonin receptor (human, UniProt P30988 25-474)
# T2 sequence (looked up): T1 sequence (looked up) 1
# B1: N^ε1-[(4S)-4-carboxy-4-(19-carboxynonadecanoylamino)butanoyl]-[Arg17,Pro21,Pro27,His35]-h-amylin (peptide)
# peptide: K([γGlu-C20 diacid])CNTATCATQRLANFLRHSSPNFGAIPSSTNVGSHTY-NH2
# modifications: disulfide 2-7; N-terminus assumed
# SMILES: CC[C@H](C)[C@H](NC(=O)[C@H](C)NC(=O)CNC(=O)[C@H](Cc1ccccc1)NC(=O)[C@H](CC(N)=O)NC(=O)[C@@H]1CCCN1C(=O)[C@H](CO)NC(=O)[C@H](CO)NC(=O)[C@H](Cc1c[nH]cn1)NC(=O)[C@H](CCCNC(=N)N)NC(=O)[C@H](CC(C)C)NC(=O)[C@H](Cc1ccccc1)NC(=O)[C@H](CC(N)=O)NC(=O)[C@H](C)NC(=O)[C@H](CC(C)C)NC(=O)[C@H](CCCNC(=N)N)NC(=O)[C@H](CCC(N)=O)NC(=O)[C@@H](NC(=O)[C@H](C)NC(=O)[C@@H]1CSSC[C@H](NC(=O)[C@@H](N)CCCCNC(=O)CC[C@H](NC(=O)CCCCCCCCCCCCCCCCCCC(=O)O)C(=O)O)C(=O)N[C@@H](CC(N)=O)C(=O)N[C@@H]([C@@H](C)O)C(=O)N[C@@H](C)C(=O)N[C@@H]([C@@H](C)O)C(=O)N1)[C@@H](C)O)C(=O)N1CCC[C@H]1C(=O)N[C@@H](CO)C(=O)N[C@@H](CO)C(=O)N[C@H](C(=O)N[C@@H](CC(N)=O)C(=O)N[C@H](C(=O)NCC(=O)N[C@@H](CO)C(=O)N[C@@H](Cc1c[nH]cn1)C(=O)N[C@H](C(=O)N[C@@H](Cc1ccc(O)cc1)C(N)=O)[C@@H](C)O)C(C)C)[C@@H](C)O
# notes: also called compound 60
# B2: N^ε1-[(4S)-4-carboxy-4-(19-carboxynonadecanoylamino)butanoyl]-[His14,Arg17,Pro21,Pro27,His35]-h-amylin (peptide)
# peptide: K([γGlu-C20 diacid])CNTATCATQRLAHFLRHSSPNFGAIPSSTNVGSHTY-NH2
# modifications: disulfide 2-7; N-terminus assumed
# SMILES: CC[C@H](C)[C@H](NC(=O)[C@H](C)NC(=O)CNC(=O)[C@H](Cc1ccccc1)NC(=O)[C@H](CC(N)=O)NC(=O)[C@@H]1CCCN1C(=O)[C@H](CO)NC(=O)[C@H](CO)NC(=O)[C@H](Cc1c[nH]cn1)NC(=O)[C@H](CCCNC(=N)N)NC(=O)[C@H](CC(C)C)NC(=O)[C@H](Cc1ccccc1)NC(=O)[C@H](Cc1c[nH]cn1)NC(=O)[C@H](C)NC(=O)[C@H](CC(C)C)NC(=O)[C@H](CCCNC(=N)N)NC(=O)[C@H](CCC(N)=O)NC(=O)[C@@H](NC(=O)[C@H](C)NC(=O)[C@@H]1CSSC[C@H](NC(=O)[C@@H](N)CCCCNC(=O)CC[C@H](NC(=O)CCCCCCCCCCCCCCCCCCC(=O)O)C(=O)O)C(=O)N[C@@H](CC(N)=O)C(=O)N[C@@H]([C@@H](C)O)C(=O)N[C@@H](C)C(=O)N[C@@H]([C@@H](C)O)C(=O)N1)[C@@H](C)O)C(=O)N1CCC[C@H]1C(=O)N[C@@H](CO)C(=O)N[C@@H](CO)C(=O)N[C@H](C(=O)N[C@@H](CC(N)=O)C(=O)N[C@H](C(=O)NCC(=O)N[C@@H](CO)C(=O)N[C@@H](Cc1c[nH]cn1)C(=O)N[C@H](C(=O)N[C@@H](Cc1ccc(O)cc1)C(N)=O)[C@@H](C)O)C(C)C)[C@@H](C)O
# notes: also called compound 66
# B3: N^ε1-[(4S)-4-carboxy-4-(19-carboxynonadecanoylamino)butanoyl]-[His14,Arg17,Pro21,Pro27,Pro31]-h-amylin (peptide)
# peptide: K([γGlu-C20 diacid])CNTATCATQRLAHFLRHSSPNFGAIPSSTPVGSNTY-NH2
# modifications: disulfide 2-7; N-terminus assumed
# SMILES: CC[C@H](C)[C@H](NC(=O)[C@H](C)NC(=O)CNC(=O)[C@H](Cc1ccccc1)NC(=O)[C@H](CC(N)=O)NC(=O)[C@@H]1CCCN1C(=O)[C@H](CO)NC(=O)[C@H](CO)NC(=O)[C@H](Cc1c[nH]cn1)NC(=O)[C@H](CCCNC(=N)N)NC(=O)[C@H](CC(C)C)NC(=O)[C@H](Cc1ccccc1)NC(=O)[C@H](Cc1c[nH]cn1)NC(=O)[C@H](C)NC(=O)[C@H](CC(C)C)NC(=O)[C@H](CCCNC(=N)N)NC(=O)[C@H](CCC(N)=O)NC(=O)[C@@H](NC(=O)[C@H](C)NC(=O)[C@@H]1CSSC[C@H](NC(=O)[C@@H](N)CCCCNC(=O)CC[C@H](NC(=O)CCCCCCCCCCCCCCCCCCC(=O)O)C(=O)O)C(=O)N[C@@H](CC(N)=O)C(=O)N[C@@H]([C@@H](C)O)C(=O)N[C@@H](C)C(=O)N[C@@H]([C@@H](C)O)C(=O)N1)[C@@H](C)O)C(=O)N1CCC[C@H]1C(=O)N[C@@H](CO)C(=O)N[C@@H](CO)C(=O)N[C@H](C(=O)N1CCC[C@H]1C(=O)N[C@H](C(=O)NCC(=O)N[C@@H](CO)C(=O)N[C@@H](CC(N)=O)C(=O)N[C@H](C(=O)N[C@@H](Cc1ccc(O)cc1)C(N)=O)[C@@H](C)O)C(C)C)[C@@H](C)O
# notes: also called compound 62
# B4: N^ε1-[(4S)-4-carboxy-4-(19-carboxynonadecanoylamino)butanoyl]-[His14,Arg17,Pro21,Pro27,Arg34]-h-amylin (peptide)
# peptide: K([γGlu-C20 diacid])CNTATCATQRLAHFLRHSSPNFGAIPSSTNVGRNTY-NH2
# modifications: disulfide 2-7; N-terminus assumed
# SMILES: CC[C@H](C)[C@H](NC(=O)[C@H](C)NC(=O)CNC(=O)[C@H](Cc1ccccc1)NC(=O)[C@H](CC(N)=O)NC(=O)[C@@H]1CCCN1C(=O)[C@H](CO)NC(=O)[C@H](CO)NC(=O)[C@H](Cc1c[nH]cn1)NC(=O)[C@H](CCCNC(=N)N)NC(=O)[C@H](CC(C)C)NC(=O)[C@H](Cc1ccccc1)NC(=O)[C@H](Cc1c[nH]cn1)NC(=O)[C@H](C)NC(=O)[C@H](CC(C)C)NC(=O)[C@H](CCCNC(=N)N)NC(=O)[C@H](CCC(N)=O)NC(=O)[C@@H](NC(=O)[C@H](C)NC(=O)[C@@H]1CSSC[C@H](NC(=O)[C@@H](N)CCCCNC(=O)CC[C@H](NC(=O)CCCCCCCCCCCCCCCCCCC(=O)O)C(=O)O)C(=O)N[C@@H](CC(N)=O)C(=O)N[C@@H]([C@@H](C)O)C(=O)N[C@@H](C)C(=O)N[C@@H]([C@@H](C)O)C(=O)N1)[C@@H](C)O)C(=O)N1CCC[C@H]1C(=O)N[C@@H](CO)C(=O)N[C@@H](CO)C(=O)N[C@H](C(=O)N[C@@H](CC(N)=O)C(=O)N[C@H](C(=O)NCC(=O)N[C@@H](CCCNC(=N)N)C(=O)N[C@@H](CC(N)=O)C(=O)N[C@H](C(=O)N[C@@H](Cc1ccc(O)cc1)C(N)=O)[C@@H](C)O)C(C)C)[C@@H](C)O
# notes: also called compound 85
# B5: N^ε1-[(4S)-4-carboxy-4-(19-carboxynonadecanoylamino)butanoyl]-[His14,Arg17,Pro21,Pro27,His34]-h-amylin (peptide)
# peptide: K([γGlu-C20 diacid])CNTATCATQRLAHFLRHSSPNFGAIPSSTNVGHNTY-NH2
# modifications: disulfide 2-7; N-terminus assumed
# SMILES: CC[C@H](C)[C@H](NC(=O)[C@H](C)NC(=O)CNC(=O)[C@H](Cc1ccccc1)NC(=O)[C@H](CC(N)=O)NC(=O)[C@@H]1CCCN1C(=O)[C@H](CO)NC(=O)[C@H](CO)NC(=O)[C@H](Cc1c[nH]cn1)NC(=O)[C@H](CCCNC(=N)N)NC(=O)[C@H](CC(C)C)NC(=O)[C@H](Cc1ccccc1)NC(=O)[C@H](Cc1c[nH]cn1)NC(=O)[C@H](C)NC(=O)[C@H](CC(C)C)NC(=O)[C@H](CCCNC(=N)N)NC(=O)[C@H](CCC(N)=O)NC(=O)[C@@H](NC(=O)[C@H](C)NC(=O)[C@@H]1CSSC[C@H](NC(=O)[C@@H](N)CCCCNC(=O)CC[C@H](NC(=O)CCCCCCCCCCCCCCCCCCC(=O)O)C(=O)O)C(=O)N[C@@H](CC(N)=O)C(=O)N[C@@H]([C@@H](C)O)C(=O)N[C@@H](C)C(=O)N[C@@H]([C@@H](C)O)C(=O)N1)[C@@H](C)O)C(=O)N1CCC[C@H]1C(=O)N[C@@H](CO)C(=O)N[C@@H](CO)C(=O)N[C@H](C(=O)N[C@@H](CC(N)=O)C(=O)N[C@H](C(=O)NCC(=O)N[C@@H](Cc1c[nH]cn1)C(=O)N[C@@H](CC(N)=O)C(=O)N[C@H](C(=O)N[C@@H](Cc1ccc(O)cc1)C(N)=O)[C@@H](C)O)C(C)C)[C@@H](C)O
# notes: also called compound 81
# Target: T1, human amylin receptor (amylin 3(a) …)
# Assay: cell-based or functional assay
hAmylin-R funct. EC50 [nM],Ratio hCT/hAmylin funct.,Binder
0.351,,B1
0.027,,B2
0.044,,B3
0.146,26.6,B4
0.13,,B5

# Target: T2, human calcitonin receptor
# Assay: cell-based or functional assay
row,hCTR funct. EC50 [nM],Binder
1,5.36,B1
2,0.542,B2
3,0.539,B3
4,3.88,B4
5,1.73,B5

# Source: patent publication US20140087995A1 (published 2014)
